These results are taken from US20040170619, “Gene regulation” (published 2004).

The target of series [1] is TNFR1-4-2 six-zinc-finger DNA-binding domain (synthetic construct). Description: ELONA; high affinity and specificity; 50 uM ZnCl2, PBS pH 7.0, 10 nM site, salmon sperm competitor DNA, room temperature. The note with it: may carry C-terminal NLS-KOX1-c-myc in the ELISA construct; label: biotin. Here is the method:
(§1) DNA binding reactions contain the appropriate zinc finger peptide, biotinylated binding site (10 nM) and 5 μg competitor DNA (sonicated salmon sperm DNA), in a total volume of 50 μl, which contained: 1×PBS (pH 7.0), 1.25×10⁻³ U high affinity anti-HA-Peroxidase antibody (Boehringer Mannheim), 50 μM ZnCl₂, 0.01 mg/ml BSA, and 0.5% Tween 20. Incubations are performed at room temperature for 40 minutes. Black streptavidin-coated wells are blocked with 4% marvel for 1 hour. Binding reactions are added to the streptavidin-coated wells and incubated for a further 40 minutes at room temperature. Wells are washed 5 times in 100 μl wash buffer (1×PBS (pH 7.0), 50 µM ZnCl₂, 0.01 mg/ml BSA, and 0.5% Tween 20), and finally 50 μl QuantaBlu peroxidase substrate solution (Pierce) is added to detect bound HA-tagged zinc finger peptide. ELISA signals are read in a SPECTRAmax GeminiXS spectrophotometer (Molecular Devices) and analysed using SOFTmax Pro 3.1.2 (Molecular Devices).

Series [2] deals with EPOb-a-VP64 six-zinc-finger activator (synthetic construct). The experiment in a line: ELONA; binds tightly and specifically; 50 uM ZnCl2, PBS pH 7.0, salmon sperm competitor DNA; values only in figure. Particulars: tags: SV40 NLS, VP64, c-myc 9E10, C-terminal HA for ELISA; label: biotin. As to the method:
as §1

Sequence of TNFR1-4-2 six-zinc-finger DNA-binding domain (synthetic construct) (chain, as listed by the source): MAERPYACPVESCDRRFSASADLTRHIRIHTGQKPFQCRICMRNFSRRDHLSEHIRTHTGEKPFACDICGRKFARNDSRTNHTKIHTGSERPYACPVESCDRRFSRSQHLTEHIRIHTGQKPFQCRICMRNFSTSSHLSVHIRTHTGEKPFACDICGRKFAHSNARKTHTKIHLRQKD

B1: TNFR1-4-2 target site (dsDNA)
DNA 1: GTCGGATTGGTGGGTTGGGGGCACAAGGCA
DNA 2: TGCCTTGTGCCCCCAACCCACCAATCCGAC
In the case of B1, in series [1], the binding result is reported as “binds”.

B2: EPO B-A target site (dsDNA)
DNA 1: TCTGGGGTGGGGGCTGGG
DNA 2: CCCAGCCCCCACCCCAGA
In the case of B2, the binding result in series [2] is listed as “binds”.
